Ten molecules from patent US20160002343A1 (AbbVie / Abbott, published 2016) can be followed below.

Some results are limits rather than exact numbers.

T1: Repulsive guidance molecule A (Mus musculus (Mouse), UniProt Q6PCX7 48-427, GPI anchor at the C-terminus after removal of 428-454. Autocatalytic cleavage between 169 and 170 may split the protein into two disulfide-linked fragments. The letters carry neither.)
T1 sequence: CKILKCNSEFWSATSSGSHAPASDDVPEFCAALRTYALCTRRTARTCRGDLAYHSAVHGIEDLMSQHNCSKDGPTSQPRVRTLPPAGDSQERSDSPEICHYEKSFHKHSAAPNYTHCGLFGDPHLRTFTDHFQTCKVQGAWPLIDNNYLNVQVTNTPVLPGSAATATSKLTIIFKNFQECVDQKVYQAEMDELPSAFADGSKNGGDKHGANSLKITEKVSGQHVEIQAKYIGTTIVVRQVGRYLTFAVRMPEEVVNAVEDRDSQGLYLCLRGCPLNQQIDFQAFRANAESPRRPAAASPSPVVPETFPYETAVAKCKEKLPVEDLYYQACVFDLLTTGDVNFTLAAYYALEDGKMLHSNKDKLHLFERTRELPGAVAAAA

B1: DVD2366 (bispecific antibody)
VH-VH: EVQLLESGGGLVQPGGSLRLSCAASGFTFSNYGMSWVRQAPGKGLEWVASIRSGGGRTYYSDNVKGRFTISRDNSKNTLYLQMNSLRAEDTAVYYCVRYDHYSGSSDYWGQGTLVTVSSASTKGPQVQLVQSGAEVKKPGASVKVSCKASGFTFSNYGMHWIRQAPGQGLEWIAMIYYDSSKMNYADTVKGRFTITRDNSTNTLYMELSSLRSEDTAVYYCAVPTSHYVVDVWGQGTTVTVSS
VL-VL: DVVMTQSPLSLPVTPGEPASISCKSSQSLLDSDGKTYLNWLLQKPGQSPQRLIYLVSKLDSGVPDRFSGSGSGTDFTLKISRVEAEDVGVYYCWQGTHFPRTFGQGTKVEIKRTVAAPEIVMTQSPATLSVSPGERATLSCQASQDIGNWLAWYQQKPGQSPRLLIYGATSLADGVPARFSGSRSGTEFTLTISSLQSEDFAVYYCLQAYNTPWTFGGGTKVEIK
notes: DVD-Ig
B2: RGMA (AE12-1) (antibody, V domains shown)
VH: EVQLVQSGAEVKKPGASVKVSCKASGYTFTSHGISWVRQAPGQGLDWMGWISPYSGNTNYAQKLQGRVTMTTDTSTSTAYMELSSLRSEDTAVYYCARVGSGPYYYMDVWGQGTLVTVSS
VL: QSALTQPRSVSGSPGQSVTISCTGTSSSVGDSIYVSWYQQHPGKAPKLMLYDVTKRPSGVPDRFSGSKSGNTASLTISGLQAEDEADYYCCSYAGTDTLFGGGTKVTVLG
B3: RGMA(AE12-1)-LS-TfR(AB403) (bispecific antibody)
VH: EVQLVQSGAEVKKPGASVKVSCKASGYTFTSHGISWVRQAPGQGLDWMGWISPYSGNTNYAQKLQGRVTMTTDTSTSTAYMELSSLRSEDTAVYYCARVGSGPYYYMDVWGQGTLVTVSSASTKGPSVFPLAPEVQLVESGGGLVQPGGSLRLSCAASGFTFSNYGMHWIRQAPGKGLEWIAMIYYDSSKMNYADTVKGRFTISRDNAKNSLYLQMNSLRAEDTAVYYCAVPTSHYVVDVWGQGTTVTVSS
VL: QSALTQPRSVSGSPGQSVTISCTGTSSSVGDSIYVSWYQQHPGKAPKLMLYDVTKRPSGVPDRFSGSKSGNTASLTISGLQAEDEADYYCCSYAGTDTLFGGGTKVTVLGQPKAAPEIVMTQSPATLSVSPGERATLSCQASQDIGNWLAWYQQKPGQSPRLLIYGATSLADGVPARFSGSRSGTEFTLTISSLQSEDFAVYYCLQAYNTPWTFGGGTKVEIK
B4: RGMA(AE12-1)-SS-TfR(AB403) (bispecific antibody)
VH: EVQLVQSGAEVKKPGASVKVSCKASGYTFTSHGISWVRQAPGQGLDWMGWISPYSGNTNYAQKLQGRVTMTTDTSTSTAYMELSSLRSEDTAVYYCARVGSGPYYYMDVWGQGTLVTVSSASTKGPEVQLVESGGGLVQPGGSLRLSCAASGFTFSNYGMHWIRQAPGKGLEWIAMIYYDSSKMNYADTVKGRFTISRDNAKNSLYLQMNSLRAEDTAVYYCAVPTSHYVVDVWGQGTTVTVSS
VL: QSALTQPRSVSGSPGQSVTISCTGTSSSVGDSIYVSWYQQHPGKAPKLMLYDVTKRPSGVPDRFSGSKSGNTASLTISGLQAEDEADYYCCSYAGTDTLFGGGTKVTVLGQPKAAPEIVMTQSPATLSVSPGERATLSCQASQDIGNWLAWYQQKPGQSPRLLIYGATSLADGVPARFSGSRSGTEFTLTISSLQSEDFAVYYCLQAYNTPWTFGGGTKVEIK
B5: TfR(AB405)-SL-RGMA(AE12-1) (bispecific antibody)
VH: QVQLVQSGAEVKKPGASVKVSCKASGFTFSNYGMHWIRQAPGQGLEWIAMIYYDSSKMNYADTVKGRFTITRDNSTNTLYMELSSLRSEDTAVYYCAVPTSHYVVDVWGQGTTVTVSSASTKGPEVQLVQSGAEVKKPGASVKVSCKASGYTFTSHGISWVRQAPGQGLDWMGWISPYSGNTNYAQKLQGRVTMTTDTSTSTAYMELSSLRSEDTAVYYCARVGSGPYYYMDVWGQGTLVTVSS
VL: EIVMTQSPATLSVSPGERATLSCQASQDIGNWLAWYQQKPGQSPRLLIYGATSLADGVPARFSGSRSGTEFTLTISSLQSEDFAVYYCLQAYNTPWTFGGGTKVEIKRTVAAPSVFIFPPQSALTQPRSVSGSPGQSVTISCTGTSSSVGDSIYVSWYQQHPGKAPKLMLYDVTKRPSGVPDRFSGSKSGNTASLTISGLQAEDEADYYCCSYAGTDTLFGGGTKVTVL
B6: RGMA(AE12-1)-GS-TfR(AB403) DVD-Ig protein (bispecific antibody, human IgG1, not shown: a dimerising Fc or GST)
heavy: EVQLVQSGAEVKKPGASVKVSCKASGYTFTSHGISWVRQAPGQGLDWMGWISPYSGNTNYAQKLQGRVTMTTDTSTSTAYMELSSLRSEDTAVYYCARVGSGPYYYMDVWGQGTLVTVSSGGGGSGGGGSEVQLVESGGGLVQPGGSLRLSCAASGFTFSNYGMHWIRQAPGKGLEWIAMIYYDSSKMNYADTVKGRFTISRDNAKNSLYLQMNSLRAEDTAVYYCAVPTSHYVVDVWGQGTTVTVSS
light: QSALTQPRSVSGSPGQSVTISCTGTSSSVGDSIYVSWYQQHPGKAPKLMLYDVTKRPSGVPDRFSGSKSGNTASLTISGLQAEDEADYYCCSYAGTDTLFGGGTKVTVLGGGSGGGGSGEIVMTQSPATLSVSPGERATLSCQASQDIGNWLAWYQQKPGQSPRLLIYGATSLADGVPARFSGSRSGTEFTLTISSLQSEDFAVYYCLQAYNTPWTFGGGTKVEIKR
B7: RGMA(AE12-1)-SS-TfR(AB402) (bispecific antibody, part only; not given: Inner anti-TfR domains, linkers, constant regions, not shown: a dimerising Fc or GST)
heavy, part: EVQLVQSGAEVKKPGASVKVSCKASGYTFTSHGISWVRQAPGQGLDWMGWISPYSGNTNYAQKLQGRVTMTTDTSTSTAYMELSSLRSEDTAVYYCARVGSGPYYYMDVWGQGTLVTVSS
light, part: QSALTQPRSVSGSPGQSVTISCTGTSSSVGDSIYVSWYQQHPGKAPKLMLYDVTKRPSGVPDRFSGSKSGNTASLTISGLQAEDEADYYCCSYAGTDTLFGGGTKVTVLG
B8: TfR(AB405)-LL-RGMA(AE12-1) (bispecific antibody, part only; not given: Outer anti-TfR domains, linkers, constant regions, not shown: a dimerising Fc or GST)
heavy, part: EVQLVQSGAEVKKPGASVKVSCKASGYTFTSHGISWVRQAPGQGLDWMGWISPYSGNTNYAQKLQGRVTMTTDTSTSTAYMELSSLRSEDTAVYYCARVGSGPYYYMDVWGQGTLVTVSS
light, part: QSALTQPRSVSGSPGQSVTISCTGTSSSVGDSIYVSWYQQHPGKAPKLMLYDVTKRPSGVPDRFSGSKSGNTASLTISGLQAEDEADYYCCSYAGTDTLFGGGTKVTVLG
B9: RGMA(AE12-1)-GS-TfR(AB402) (bispecific antibody, part only; not given: anti-TfR domains, constants, not shown: a dimerising Fc or GST)
heavy, part: EVQLVQSGAEVKKPGASVKVSCKASGYTFTSHGISWVRQAPGQGLDWMGWISPYSGNTNYAQKLQGRVTMTTDTSTSTAYMELSSLRSEDTAVYYCARVGSGPYYYMDVWGQGTLVTVSSGGGGSGGGGS
light, part: QSALTQPRSVSGSPGQSVTISCTGTSSSVGDSIYVSWYQQHPGKAPKLMLYDVTKRPSGVPDRFSGSKSGNTASLTISGLQAEDEADYYCCSYAGTDTLFGGGTKVTVLGGGSGGGGSG
B10: TfR(AB405)-GS-RGMA(AE12-1) (bispecific antibody, part only; not given: anti-TfR domains, constants, not shown: a dimerising Fc or GST)
heavy, part: GGGGSGGGGSEVQLVQSGAEVKKPGASVKVSCKASGYTFTSHGISWVRQAPGQGLDWMGWISPYSGNTNYAQKLQGRVTMTTDTSTSTAYMELSSLRSEDTAVYYCARVGSGPYYYMDVWGQGTLVTVSS
light, part: GGSGGGGSGQSALTQPRSVSGSPGQSVTISCTGTSSSVGDSIYVSWYQQHPGKAPKLMLYDVTKRPSGVPDRFSGSKSGNTASLTISGLQAEDEADYYCCSYAGTDTLFGGGTKVTVLG

For one assay, the target named is T2, mouse Transferrin Receptor overexpressed on Hek 293 cells (mouse, UniProt Q62351 1-763).
T2 construct: whole, on cells; also called mTfR; Hek293/mTfR
T2 sequence (Q62351 whole entry): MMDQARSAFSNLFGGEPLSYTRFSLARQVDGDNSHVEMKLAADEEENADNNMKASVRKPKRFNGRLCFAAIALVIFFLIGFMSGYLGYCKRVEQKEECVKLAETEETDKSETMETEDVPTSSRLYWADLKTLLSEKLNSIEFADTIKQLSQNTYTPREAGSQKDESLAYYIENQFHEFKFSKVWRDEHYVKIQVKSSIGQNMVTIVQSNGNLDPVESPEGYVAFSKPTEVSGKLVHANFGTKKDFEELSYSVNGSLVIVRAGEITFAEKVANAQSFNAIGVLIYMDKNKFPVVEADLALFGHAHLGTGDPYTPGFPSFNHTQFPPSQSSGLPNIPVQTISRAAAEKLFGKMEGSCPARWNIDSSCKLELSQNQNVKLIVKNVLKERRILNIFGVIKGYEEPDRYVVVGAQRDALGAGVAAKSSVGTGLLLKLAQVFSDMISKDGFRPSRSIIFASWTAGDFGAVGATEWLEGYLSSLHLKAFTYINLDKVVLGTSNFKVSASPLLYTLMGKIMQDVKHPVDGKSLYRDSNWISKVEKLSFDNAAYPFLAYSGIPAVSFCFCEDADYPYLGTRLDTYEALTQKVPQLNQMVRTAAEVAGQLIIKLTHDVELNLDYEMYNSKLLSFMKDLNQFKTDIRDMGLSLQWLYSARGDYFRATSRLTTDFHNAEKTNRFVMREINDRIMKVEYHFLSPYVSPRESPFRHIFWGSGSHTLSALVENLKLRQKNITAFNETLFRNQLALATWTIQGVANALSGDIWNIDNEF
Kind of assay: cell-based MSD-ECL binding, Hek293/mTfR cells. Here is the method:
Meso-scale Discovery (MSD) Electrochemiluminescence (ECL) assays to screen for antibodies or DVD-Ig proteins that bind a desired target antigen expressed on the cell surface were performed as follows: Hek 293 cells overexpressing mouse Transferrin Receptor were added onto MSD 96-well plates (MSD Cat# L11 XB-3, lot#2290-EA). The plates which were blocked using blocking buffer (30% FBS Serum (Hyclone) in PBS) at 37° C. for 1 hour. After incubating at room temperature (RT) for 30 minutes with mild agitation, plates were washed with DPBS 3 times and Abs/DVD-Ig proteins (10,000 ng/ml) were added. After incubating for 1 hour at RT, plates were washed 3 times with DPBS and 25 μl of Goat anti-human Sulfo TAG (MSD Cat# R32AC-, Lot# W001162) at 1 μg/ml was added. Following incubation at RT for 1 hour, plates were washed and MSD read buffer was added before reading on a MSD SECTOR Imager 6000. EC50 values were obtained using Xlfit4 software package.
In the case of B1, the binding result is “no binding (tested: 10,000 ng/ml)”.

The target in another assay is T1, Repulsive guidance molecule A. Kind of assay: cell-based or functional assay.
As for B2, the “BMP Assay IC50” value is 0.25 nM.

With B3, the “BMP Assay IC50” value is under 0.025 nM.

With B4, the “BMP Assay IC50” value was determined as 1.18 nM.

Turning to B5, the “BMP Assay IC50” value was 0.73 nM.

Turning to B6, the “BMP Assay IC50” value was under 0.025 nM.

The target of the next assay is Repulsive guidance molecule A (Mus musculus (Mouse)) (UniProt Q6PCX7). Description: cell-based or functional assay.
B7 displayed a BMP Assay IC50 of 0.436 nM.

In turn, B8 gave a BMP Assay IC50 of 0.701 nM.

The molecule B9 registered a BMP Assay IC50 of 0.014 nM.

As to B10, the BMP Assay IC50 is 3.12 nM.
